The values below come from patent publication US20260098102A1 (NATIONAL UNIVERSITY CORPORATION KOBE UNIVERSITY, published 2026).

One experiment has as its target T1, human SIRPB (human, UniProt O00241 30-398).
T1 construct: whole, on cells; FLAG-tagged (pFLAG V5-DEST), on CHO-K1 cells; also called SIRPβ1; signal regulatory protein β1
The experiment in a line: flow cytometry on CHO-K1 cells expressing FLAG-tagged human SIRPB; PE anti-human IgG; MFI standardized to secondary antibody alone. The protocol:
SIRPβ1 (signal regulatory protein β1: the amino acid sequence thereof is published as RefSeq accession number NP_006056) and SIRPγ (signal regulatory protein γ: the amino acid sequence thereof is published as RefSeq accession number NP_061026) are molecules belonging to the SIRPA family. In the present invention, “SIRPα” may be referred to as “SIRPA,” “SIRPβ1” may be referred to as […] and “SIRPγ” may be referred to as “SIRPG.” CHO-K1 cells were prepared in a 10% FBS-containing Ham's F-12K medium at 3.3×10⁵ cells/mL and cultured overnight at 37° C. under a 5% CO₂ condition. pFLAG V5-DEST-human SIRPβ, pFLAG V5-DEST-human SIRPG, or pFLAG V5-DEST was introduced into the cells using Lipofectamine LTX (Invitrogen), and cells were cultured in a 10% FBS-containing Ham's F-12K medium at 37° C. under a 5% CO₂ condition for 24 hours. The obtained introduced cells were collected and seeded on a 96-well plate. After the culture supernatant was removed, 100 μL per well of various anti-human SIRPA antibodies or various control human IgG was added to each of various gene introduced cells at a final concentration of 0 to 10,000 ng/mL, and the mixture was allowed to stand at 4° C. for 25 minutes. After the mixture was centrifuged, the supernatant was removed, and cells were washed twice with 5% FBS-containing PBS. After the mixture was centrifuged, the supernatant was removed, 50 μL per well of a 1/400 diluted solution of PE Mouse anti-Human IgG antibody (BioLegend) was added, and the mixture was allowed to stand at 4° C. for 25 minutes. After the mixture was centrifuged, the supernatant was removed, and cells were washed twice with 5% FBS-containing PBS.
(§1) After the mixture was centrifuged, and the supernatant was removed, cells were suspended in 100 μL per well of 1× BD Stabilizing Fixative (Becton Dickinson), and the cell count was measured by flow cytometry (FACS Canto II: Becton Dickinson). For data analysis, FlowJo (TreeStar) was used. Cells were characterized by detecting forward scattered (FSC) light and side-scattered (SSC) light, and then the mean fluorescence intensity of PE was calculated. Binding of various antibodies to the family molecules was calculated by standardizing the fluorescence intensity using the mean fluorescence intensity of a sample in which the secondary antibody alone was allowed to react.
On the technique in general: Flow cytometry measures light scatter and fluorescence of single cells or particles in a stream.

The target in the next experiment is T2, SIRPA_V1_IgV (human, UniProt P78324 31-149).
T2 construct: Secreted recombinant protein from FreeStyle 293F cells
T2 sequence (P78324 other isoform, or with tags, fused parts or gaps limits assumed): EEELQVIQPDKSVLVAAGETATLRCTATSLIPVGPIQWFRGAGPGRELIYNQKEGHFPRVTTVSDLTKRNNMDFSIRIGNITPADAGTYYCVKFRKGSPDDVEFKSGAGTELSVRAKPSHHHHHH
The experiment in a line: SPR Biacore T200, antibody captured on anti-human IgG (Fc), SIRPA_V1_IgV as analyte (0.25 to 16 nM), 1:1 model. The procedure:
(§2) The dissociation constants were measured by a capture method comprising capturing each antibody as a ligand to an Anti-Human IgG (Fc) antibody immobilized using Human Antibody Capture Kit (GE Healthcare Bioscience Corp.) and measuring an antigen as an analyte, using Biacore T200 (GE Healthcare Bioscience Corp.). HBS-EP+ (GE Healthcare Bioscience Corp.) was used as a running buffer, and CM5 (GE Healthcare Bioscience Corp.) was used as a sensor chip. Onto the chip, 2 μg/mL of various antibodies were added at 10 μL/min for 30 seconds, then a serially diluted solution (0.25 to 16 nM) of the human SIRPA protein as an antigen was added at a flow rate of 30 μL/min for 120 seconds, and subsequently the dissociation phase for 600 seconds was monitored. As a regenerant, 3 M magnesium chloride (GE Healthcare Bioscience Corp.) was added at a flow rate of 20 μL/min for 30 seconds. For data analysis, a binding rate constant (ka), a dissociation rate constant (kd), and a dissociation constant (KD; KD=kd/ka) were calculated using a 1:1 binding model.
Background: In SPR one partner is held on a chip, and binding of the other changes the refractive index at the surface.

A further experiment has as its target T3, SIRPA_V2_IgV (human).
T3 construct: Secreted recombinant protein; The crystal model held residues 33 to 143 of human SIRPA Variant 2
Description: SPR Biacore T200, antibody captured on anti-human IgG (Fc), SIRPA_V2_IgV as analyte (0.25 to 16 nM), 1:1 model. The procedure: as §2

A further experiment addresses T4, human SIRPG (human, UniProt Q9P1W8 29-387).
T4 construct: whole, on cells; FLAG-tagged (pFLAG V5-DEST), on CHO-K1 cells; also called SIRPγ; signal regulatory protein γ
The experiment in a line: flow cytometry on CHO-K1 cells expressing FLAG-tagged human SIRPG; PE anti-human IgG; MFI standardized to secondary antibody alone. The protocol: SIRPβ1 (signal regulatory protein β1: the amino acid sequence thereof is published as RefSeq accession number NP_006056) and SIRPγ (signal regulatory protein γ: the amino acid sequence thereof is published as RefSeq accession number NP_061026) are molecules belonging to the SIRPA family. In the present invention, “SIRPα” may be referred to as “SIRPA,” “SIRPβ1” may be referred to as […] and “SIRPγ” may be referred to as “SIRPG.” CHO-K1 cells were prepared in a 10% FBS-containing Ham's F-12K medium at 3.3×10⁵ cells/mL and cultured overnight at 37° C. under a 5% CO₂ condition. pFLAG V5-DEST-human SIRPβ, pFLAG V5-DEST-human SIRPG, or pFLAG V5-DEST was introduced into the cells using Lipofectamine LTX (Invitrogen), and cells were cultured in a 10% FBS-containing Ham's F-12K medium at 37° C. under a 5% CO₂ condition for 24 hours. The obtained introduced cells were collected and seeded on a 96-well plate. After the culture supernatant was removed, 100 μL per well of various anti-human SIRPA antibodies or various control human IgG was added to each of various gene introduced cells at a final concentration of 0 to 10,000 ng/mL, and the mixture was allowed to stand at 4° C. for 25 minutes. After the mixture was centrifuged, the supernatant was removed, and cells were washed twice with 5% FBS-containing PBS. […]
as §1, with “For data analysis, FlowJo (TreeStar) was used.” left out

The target of a further experiment is T5, human SIRPA_V1 protein (human, UniProt P78324 31-504).
T5 construct: Expressed on 293α cells from pcDNA3.2 V5-DEST or pFLAG V5-DEST (FLAG-tagged) vectors; also called human SIRPA Variant 1; hSIRPA V1
T5 sequence (P78324 31-504 limits assumed): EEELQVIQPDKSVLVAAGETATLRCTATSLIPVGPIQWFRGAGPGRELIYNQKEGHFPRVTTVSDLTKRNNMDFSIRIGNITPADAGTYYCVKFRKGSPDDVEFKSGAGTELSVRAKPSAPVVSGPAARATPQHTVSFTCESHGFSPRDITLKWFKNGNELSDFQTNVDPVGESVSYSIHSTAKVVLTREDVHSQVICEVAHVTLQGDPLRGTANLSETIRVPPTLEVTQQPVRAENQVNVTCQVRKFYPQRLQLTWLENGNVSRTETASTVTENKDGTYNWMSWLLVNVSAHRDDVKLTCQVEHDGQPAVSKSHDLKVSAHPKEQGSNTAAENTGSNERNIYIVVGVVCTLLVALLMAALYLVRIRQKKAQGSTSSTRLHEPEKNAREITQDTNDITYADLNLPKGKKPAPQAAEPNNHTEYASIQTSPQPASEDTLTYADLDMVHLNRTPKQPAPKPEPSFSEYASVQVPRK
Description: blocking cell-based ELISA: peroxidase-labeled CD47-Fc (1 µg/mL) on 293α cells expressing SIRPA_V1. The procedure:
(§3) After the culture supernatant of the human SIRPA_V1 or V2 expression vector-introduced 293 cells prepared in Example 9)-1 was removed, 50 μL per well of various anti-SIRPA antibodies or various control Human IgG diluted with 5% FBS-containing PBS to a final concentration of 0 to 10,000 ng/ml was added to each of pcDNA3.2 V5-DEST-SIRPA_V1 or V2-introduced 293α cells, immediately followed by addition of 50 µL per well of peroxidase-labeled CD47-Fc prepared with 5% FBS-containing PBS at 1 μg/mL, and the mixture was allowed to stand at 4° C. for one hour. Thereafter, the SIRPA-CD47 binding inhibitory activity was evaluated in the same manner as in 1)-6-3.

The next experiment addresses T6, human SIRPA_V2 protein (human, UniProt P78324 31-504).
T6 construct: Expressed on 293α cells from pcDNA3.2 V5-DEST or pFLAG V5-DEST (FLAG-tagged) vectors; also called human SIRPA Variant 2; ECD variant (full-length, amino acids 1 to 504)
Description: blocking cell-based ELISA: peroxidase-labeled CD47-Fc (1 µg/mL) on 293α cells expressing SIRPA_V2. The procedure: as §3
A general note: ELISA stands for enzyme-linked immunosorbent assay.

T6 sequence (P78324 other isoform, or with tags, fused parts or gaps limits assumed): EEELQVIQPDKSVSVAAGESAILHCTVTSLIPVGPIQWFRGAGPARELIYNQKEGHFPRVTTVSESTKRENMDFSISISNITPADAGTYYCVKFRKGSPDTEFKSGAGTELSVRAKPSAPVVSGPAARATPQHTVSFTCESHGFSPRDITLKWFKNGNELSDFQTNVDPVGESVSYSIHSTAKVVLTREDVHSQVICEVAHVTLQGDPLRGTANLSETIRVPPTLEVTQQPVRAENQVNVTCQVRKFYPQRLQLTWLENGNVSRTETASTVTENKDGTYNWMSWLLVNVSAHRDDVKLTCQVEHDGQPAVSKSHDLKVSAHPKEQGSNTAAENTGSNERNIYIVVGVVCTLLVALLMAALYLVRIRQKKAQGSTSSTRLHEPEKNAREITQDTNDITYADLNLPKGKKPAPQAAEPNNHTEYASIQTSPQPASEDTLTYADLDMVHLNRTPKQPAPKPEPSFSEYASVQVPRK
T3 sequence (chain, as listed by the source limits assumed): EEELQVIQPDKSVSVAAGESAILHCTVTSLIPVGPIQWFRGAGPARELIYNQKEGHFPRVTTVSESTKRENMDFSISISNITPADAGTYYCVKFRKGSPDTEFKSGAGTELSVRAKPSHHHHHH
T4 sequence (Q9P1W8 29-387): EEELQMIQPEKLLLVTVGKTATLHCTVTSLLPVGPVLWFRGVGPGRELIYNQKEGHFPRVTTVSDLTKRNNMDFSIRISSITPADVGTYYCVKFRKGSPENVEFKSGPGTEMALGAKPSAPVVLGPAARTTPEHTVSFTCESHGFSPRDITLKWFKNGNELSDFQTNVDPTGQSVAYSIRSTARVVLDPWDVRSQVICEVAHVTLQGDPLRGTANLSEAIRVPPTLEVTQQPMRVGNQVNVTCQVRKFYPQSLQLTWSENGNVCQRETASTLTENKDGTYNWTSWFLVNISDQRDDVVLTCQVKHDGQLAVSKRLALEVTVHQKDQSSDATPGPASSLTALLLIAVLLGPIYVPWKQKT
T1 sequence (O00241 30-398): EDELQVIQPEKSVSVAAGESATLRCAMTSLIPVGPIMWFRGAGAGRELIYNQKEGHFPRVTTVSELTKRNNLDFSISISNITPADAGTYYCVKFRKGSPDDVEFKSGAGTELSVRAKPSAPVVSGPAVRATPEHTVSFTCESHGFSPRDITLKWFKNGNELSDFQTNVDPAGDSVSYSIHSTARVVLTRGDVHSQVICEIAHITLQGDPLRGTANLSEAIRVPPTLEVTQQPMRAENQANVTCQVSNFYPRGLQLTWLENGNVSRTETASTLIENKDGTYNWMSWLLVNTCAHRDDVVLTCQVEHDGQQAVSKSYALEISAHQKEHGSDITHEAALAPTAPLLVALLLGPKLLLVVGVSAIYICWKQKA

B1: ADU-1805 (antibody, human IgG2, kappa, V domains shown)
VH: EVQLVQSGAEVVKPGASVKLSCKASGSTFTSYWMHWVKQAPGQGLEWIGAIYPVNSDTTYNQKFKGKATLTVDKSASTAYMELSSLRSEDTAVYYCTRSFYYSLDAAWFVYWGQGTLVTVSS
VL: DIQMTQSPSSLSASVGDRVTITCRASQDIGSRLNWLQQKPGKAPKRLIYATSSLDSGVPSRFSGSGSGTEFTLTISSLQPEDFATYYCLQYASSPFTFGGGTKVEIKR
notes: IgG2 heavy chain; also called ADU-1805_hG2 / ADU-1805_hK
On to B1, for which the EC50 (read off the curve) (commonly the concentration giving half of the maximal effect) with human SIRPB is about 0.2 µg/mL. Besides, the dissociation constant Kd (as a rule, the constant that tells how readily two partners part at equilibrium) with SIRPA_V1_IgV amounted to 4.39 nM; with SIRPA_V2_IgV, 6.32 nM. Besides, in the experiment with human SIRPG, the binding result is “binds”. For the same molecule, the results for the IC50 with human SIRPA_V1 protein and in the experiment with human SIRPA_V2 protein were 2.97 µg/mL and 2.12 µg/mL, respectively.
